# Laboratory results published in the supplement of paper PMC12042874.
# ± gives the uncertainty stated by the source.
# Test: amyloid nucleation score (Sup35N fusion, yeast selection) (log enrichment); library NNK2; higher = more nucleation; inactive = no reads after selection
# Summary of the method: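 Growth for 7 days at 30°C on medium lacking adenine and uracil followed a 24-hour induction with 100 μM copper sulfate of psi-negative yeast expressing peptides of 20 random codons fused to Sup35N. Input and output plasmid inserts were sequenced with Illumina, and sequences with under 100 input reads were excluded. Nucleation score is the DiMSum log enrichment of output over input reads, centred on the mode score of non-aggregating sequences.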
row,Substance,amyloid nucleation score
1,CSFLYIGLVIPSFEYDHALL,4.171 ± 0.041
2,KYCHLWCEKGMELSALSEAV,0.001 ± 0.76
3,IMRMNVMCGVRYPYALFALL,inactive
4,VRIFWTVTLFDCRLLRWLSN,0.045 ± 0.38
5,HWDQLV,-0.504 ± 0.78
6,VCYKYRTCYIYISFRSNFST,-1.04 ± 1.1
7,VRSISASLSAMIYR,-0.925 ± 0.45
8,CYFSGSVSRTSVRLVLLSNG,-0.573 ± 1.1
9,YESLYVKLVAEPQIRCMYYS,-0.152 ± 0.34
10,LAGLALITIIDIFGDNGRMI,3.2 ± 0.082
11,DPLPMSYRVYSARSW,-0.81 ± 1
12,VCYAGLLAKRLRLVVVSGNV,0.531 ± 0.26
13,GEQLLED,inactive
14,NCAVFTSGR,-0.478 ± 0.63
15,YPNTLFHWEAS,0.359 ± 0.29
16,SAACQCLDFWCSGLGQSQGL,6.59 ± 0.075
17,HHRMSYHY,1.72 ± 0.28
18,YDCLSWRLKEERQATFGFRG,0.505 ± 0.51
19,ICPRRS,0.474 ± 0.34
20,RGFRGRFVFGRT,-0.183 ± 0.49
21,FTSMLS,0.374 ± 0.64
22,NWLIMYNFAR,inactive
23,LILNLVFFVIPDTVFYTSGL,6.732 ± 0.058
24,YWYASSSSNIWYPEVCKCPV,-0.77 ± 0.79
25,RFGLGINLLIGVRLLCLALL,0.043 ± 1

row,Substance,amyloid nucleation score
1,DITTEVKGSLLVMLSGDNAG,0.807 ± 0.31
2,GFIISFYISDSCKSLCWQPM,0.339 ± 0.53
3,DVRRLLFLLLGQ,-0.796 ± 0.4
4,STYRSASMVQVGRLVHGNQW,5.38 ± 0.063
5,RTNYWVIAWIYAFGS,-0.716 ± 1.1
6,FLNYVGDGIIEI,-0.835 ± 0.48
7,KLSGC,0.265 ± 1.1
8,LCACIELSNKMLLTFNSNVK,-0.517 ± 0.32
9,RPWVHTGW,0.277 ± 0.57
10,RRYYNAQHVVVYELEVESLS,0.453 ± 0.66
11,DSVSTVVFII,4.47 ± 0.045
12,SLDSIFCLTENISYQGIWCR,-1.12 ± 0.28
13,LRSWSLAMRGDIMGTVRWLR,0.413 ± 0.56
14,FDSSSESLGKGKCY,0.225 ± 0.49
15,LCFQVVMPWNNISLSFLWLG,0.759 ± 0.52
16,NWIQRQVL,inactive
17,HYLAIVTWLPYRCRF,0.935 ± 0.15
18,KQMFRQFLCGNVYNWRYMRA,0.298 ± 0.56
19,FSKGEATDCSWQ,0.918 ± 0.34
20,RSMFDWYKCILHDLISLQSR,0.769 ± 0.47
21,NDTAATGANDETSDFYTEYC,0.376 ± 0.66
22,IYKSRRVRHVLDVVL,-0.241 ± 0.56
23,FTNFNDYLFWNYMNWTGYML,inactive
24,SAFSFAIVIYFRLCKVGLVD,-0.92 ± 1.1
25,PHKSAGGRLSMFGAKHGDMV,0.822 ± 0.49

row,Substance,amyloid nucleation score
1,PLNSMNVAESESYGLSQMS,1.28 ± 0.37
2,NAHMSRRGYSSMMRCY,inactive
3,FLIFTTLLYCMVDMHAGTTF,-1.77 ± 0.78
4,WVNSCVPGLARPNSLFFNRS,-0.491 ± 0.56
5,YAMGGGKGEDDLSCWYDYAC,0.219 ± 0.47
6,LVWRDV,0.729 ± 0.51
7,LRRTTGYSKLTCLTHG,4.34 ± 0.048
8,RYCVDNW,0.122 ± 0.41
9,VKLMY,-1.12 ± 0.62
10,DPNLPETVTGVIMFASVGGA,-0.13 ± 0.76
11,RIMTPWIGRGRRAHIFLHLW,1.06 ± 0.29
12,ILSCGRYWRTDTIVVTGNST,1.91 ± 0.35
13,EMVSLCSSRFRRMMGACLGT,1.39 ± 0.21
14,VYPDSIVGFEADVNGCVVVP,0.713 ± 0.38
15,VYSRDFRIQ,-1.1 ± 0.54
16,DAMSMCP,7.398 ± 0.061
17,GTIYLFRWSFMWRFWMGTGL,-0.644 ± 0.54
18,HFILAIFLYCSIWIFEFFSL,-1.81 ± 1
19,RKWLISHPFLRRRGLSSLVF,0.99 ± 0.2
20,VSSVRIILLAWWSMRTLYFD,-2.43 ± 0.78
21,WVQHYCSEFLL,-0.313 ± 0.63
22,QTNGGEGQ,0.705 ± 0.24
23,LVISM,0.348 ± 0.46
24,CMFKQYYYCARAYSVSWTVM,-0.013 ± 0.56
25,KGLAREVRCSQYTTVIFVDR,5.273 ± 0.043

row,Substance,amyloid nucleation score
1,YFIVVFMLSVNKT,0.06 ± 0.54
2,VHRSLSLFSFKSSECRPS,6.456 ± 0.064
3,GIHCGR,3.24 ± 0.06
4,VGFRSSCMVTSLIY,-1.64 ± 0.44
5,RQDPDSLTLHRLSSGGIR,0.366 ± 0.64
6,TVYNDNFVCRILNLDITILF,6.957 ± 0.053
7,CGFFKVRENGFCGFKKMSFS,-1.12 ± 1.1
8,MVVGFRLPERLTYWRGGHMS,5.324 ± 0.047
9,VRPNSLRHILASLCFLGGEE,7.416 ± 0.032
10,LGSNEPL,-0.337 ± 0.63
11,IDGKARDYMAGDARMNRF,-1.45 ± 0.75
12,FLDMSSRIMRARRPNCFFWC,-0.022 ± 0.31
13,SQRNTLEFVLAGYKTTLVIS,-0.549 ± 0.27
14,RFDWVA,-0.038 ± 0.45
15,FYPWDSVCEFSLGCMSNPQA,0.158 ± 0.3
16,LRPDSNWTGVESLFR,-0.66 ± 0.55
17,DRGYVTD,1.14 ± 0.4
18,LRAWDYRISNSHTRLDIDFT,inactive
19,VPFCGNNCSHCVRMSRLGRS,0.719 ± 0.47
20,KDAPEECNYVQFKA,0.273 ± 0.61
21,GSQVYPPPPMADM,0.426 ± 0.3
22,AEEQLLWFCYFRELKILNIF,inactive
23,FKSQIDSECMFYLLG,-0.018 ± 0.17
24,DMLVCNGLFVFRASKGTIDA,-0.837 ± 1.1
25,TSSFEARRRGWLTDEGVLFY,0.784 ± 0.54

row,Substance,amyloid nucleation score
1,MFSYTVSVLDLIYKSIWECE,-0.941 ± 0.35
2,PRILLQSLRI,2.47 ± 0.064
3,QIVWLHCLFRRFSNGATSDD,-0.122 ± 0.23
4,IMGKLHTADYIIVLRLIDRS,-0.349 ± 0.41
5,EVWRWIFNHGLPRHAGHIVA,0.312 ± 0.43
6,DLCQSHLPCHMRRTSFRQLP,0.606 ± 0.36
7,SMSCTTSASYHYLIS,0.697 ± 0.47
8,YMVCLRSGSIPVIDLPWYSL,-0.12 ± 1
9,CGILYSFDGRFVYWSSYGSS,-0.353 ± 0.79
10,DRRWHRALQN,0.137 ± 0.37
11,NFKCFTRRVNWESYITEVVR,3.19 ± 0.068
12,TGNVCQDEVNAIGRFP,-0.864 ± 0.38
13,DFYSNYILLRSSP,-1.84 ± 1
14,HRSNFVVKLAASGSFTTGCR,0.376 ± 0.29
15,VCNSLCDSYF,-1.28 ± 0.56
16,YTRGTNGLWLYRWVMVRGSN,-0.649 ± 0.36
17,DSISNISDPCGFLGQESWVN,4.83 ± 0.063
18,LGHAISAHVMIIICWKDVFL,5.08 ± 0.077
19,NSMNVGSFRSSEWLVLFENV,-0.453 ± 1.1
20,SLDSNNSVFFVCMYSYRGCS,0.359 ± 0.32
21,AMPSRDLITR,2.52 ± 0.075
22,NPVINT,-0.271 ± 0.46
23,NRLWHPQCLWAFLNIRNPQL,0.286 ± 0.48
24,SDIFRK,-1.27 ± 0.62
25,WTMRDLCG,0.526 ± 0.3

row,Substance,amyloid nucleation score
1,MNCVLQKLVVVCFQSMAYMR,0.498 ± 0.27
2,YHSWVGFIRYPIISWGRMMG,inactive
3,SMRYNTSLRWDWVDQDAHRL,4.25 ± 0.068
4,GMVVFVI,0.21 ± 0.51
5,TFELNLLVPAPNCRFHDLRR,1.46 ± 0.22
6,ALYCERCYWPV,0.092 ± 0.53
7,DYDGTPGCVEKSTIIFMV,inactive
8,YSASKFTWPCIKTSKCGALC,-1.09 ± 0.63
9,SSRWQFYGHF,0.518 ± 0.26
10,AKVCFFKHESPMGQVGAY,-1.2 ± 0.54
11,LISRL,-0.54 ± 1.1
12,CVCDLCVPWVLNFGR,8.914 ± 0.051
13,YGNPRIFIESMKYEVGIRVS,inactive
14,AWESNCIVRFKY,4.36 ± 0.089
15,LVFHRVTWLTDNMQWKGTPG,3.2 ± 0.078
16,KGMLGAASHSQIKFVCVFSW,-0.493 ± 0.32
17,FEGCCWVVGLLRLSG,8.713 ± 0.077
18,RRQRWKRLTNF,inactive
19,CKDTTKPGYFGFDIFPNVYE,2.37 ± 0.15
20,ACFWSVIVHTMKRTVQPQPK,3.6 ± 0.09
21,VLSCCIPKKNSYWTVTDQPC,8.266 ± 0.033
22,RGLLHFIFVITQYKGIYSNV,inactive
23,PVRGE,0.089 ± 0.8
24,RMPVLSCDCRFFYVLSRVNE,-0.566 ± 1
25,YFNFDL,-0.313 ± 0.76

row,Substance,amyloid nucleation score
1,HGLTYIGIKCTYIKRVTWVR,0.389 ± 0.57
2,FLQNWKLYRCCLRVASVGGR,4.67 ± 0.11
3,PFSYFRWWPYRILAWSTWLV,4.89 ± 0.061
4,CFVNGLRNSHLGNLVWVPIG,-1 ± 0.39
5,ALMLWKCKARTCISPQRRGV,0.448 ± 0.4
6,QMVGWSMYWIKVMRISA,0.105 ± 1.1
7,SMFGRRVWLDCNQPAGGRFA,0.118 ± 0.22
8,YVATMGKGLNYLSCLEDNAA,0.282 ± 0.56
9,YCYLMMEAWHMEANWYHCFV,-0.209 ± 0.2
10,GSTVKSIVCDSVWS,0.082 ± 0.65
11,IYWSLMDWLEV,1.22 ± 0.44
12,YVNFD,-0.299 ± 0.48
13,FYATYSSLRLGVVTIIPPGL,4.49 ± 0.087
14,HNLQECSPVGPGTAFFCGSW,-0.243 ± 1.1
15,TCVVSTYLINIQKNVASFER,6.816 ± 0.041
16,SNTHISYYWGTNVWLHVDIN,6.194 ± 0.028
17,FRCGRVTFNLVEYTFPPWIW,-0.78 ± 0.63
18,AMYIIAFSPTK,1.36 ± 0.67
19,ANGLVPYVTFLVLYALHTGT,1.41 ± 0.38
20,NTNRVVWVVLAMKI,0.086 ± 0.77
21,VLGGPTVRLSWFPSSGLACY,0.23 ± 0.65
22,SNKHCWWLDCKHLRIMPRCD,-0.363 ± 0.37
23,ASFMPLFGGLGFLQKNEITM,3.7 ± 0.077
24,WGSSFR,0.592 ± 0.24
